In this assay the target is AgrC-I (wild type) dimer embedded in nanodiscs (Staphylococcus aureus). Description: fluorescence polarisation.

Data on two substances can be found in publication PMC4004102.

By Kd is commonly meant the free concentration of one partner at which half of the binding sites on the other are occupied at equilibrium, for simple one-to-one binding. A lower Kd goes with tighter binding. “AIP-I (native autoinducing peptide of agr group 1)” came in with a Kd of 63 nM. Substance “AIP-II (native autoinducing peptide of agr group 2)” gave a Kd of 160 nM.
